Where a chain is given by its changes, count along the chain named.
B1: FTL004-hu-6 (antibody, human IgG1, kappa)
heavy: not shown
light: DIQLTQSPSSLSASVGDRVTITCQASESVDNFGITFMHWYQQKPGKAPKLLIYRASNLETGVPSRFSGSGSRTDFTFTISSLQPEDIATYYCQQSSKDPRTFGQGTKLEIKRTVAAPSVFIFPPSDEQLKSGTASVVCLLNNFYPREAKVQWKVDNALQSGNSQESVTEQDSKDSTYSLSSTLTLSKADYEKHKVYACEVTHQGLSSPVTKSFNRGEC
notes: Fc before engineering; also called FLT004-hu-6; FTL004-hum-6
B2: FTL004-6 (antibody, human IgG1, kappa)
heavy: not shown
light: B1 light
B3: FTL004-hu-7 (antibody, human IgG1, kappa)
heavy: not shown
light: DIVLTQSPASLAVSPGQRATITCRASESVDNFGITFMHWYQQKPGQPPKLLIYRASNLESGVPARFSGSGSRTDFTLTINPVEANDTANYYCQQSSKDPRTFGQGTKLEIKRTVAAPSVFIFPPSDEQLKSGTASVVCLLNNFYPREAKVQWKVDNALQSGNSQESVTEQDSKDSTYSLSSTLTLSKADYEKHKVYACEVTHQGLSSPVTKSFNRGEC
notes: Fc before engineering; also called FLT004-hu-7; FTL004-hum-7
B4: FTL004-7 (antibody, human IgG1, kappa)
heavy: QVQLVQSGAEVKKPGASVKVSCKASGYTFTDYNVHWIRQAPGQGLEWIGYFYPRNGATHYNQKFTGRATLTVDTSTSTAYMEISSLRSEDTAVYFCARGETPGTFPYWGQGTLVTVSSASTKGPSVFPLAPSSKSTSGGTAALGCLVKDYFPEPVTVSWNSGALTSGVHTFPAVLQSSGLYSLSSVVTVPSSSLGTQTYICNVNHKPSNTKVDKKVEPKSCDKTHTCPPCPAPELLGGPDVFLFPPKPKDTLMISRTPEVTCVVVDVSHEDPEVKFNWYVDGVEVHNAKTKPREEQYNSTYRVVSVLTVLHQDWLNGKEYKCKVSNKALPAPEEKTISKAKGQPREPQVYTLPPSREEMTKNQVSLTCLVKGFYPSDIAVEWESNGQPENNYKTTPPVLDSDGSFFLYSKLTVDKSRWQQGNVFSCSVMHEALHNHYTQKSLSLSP
light: B3 light
notes: copies: 2 + 2
B5: FTL004-hu-1 (antibody, human IgG1, kappa)
heavy: not shown
light: B3 light
notes: human IgG1 type constant regions, Fc before engineering; also called FLT004-hu-1; FTL004-hum-1
B6: FTL004-hu-9 (antibody, human IgG1, kappa, V domains shown)
VH: QVQLVQSGAEVKKPGASVKVSCKASGYTFTDYNVHWIRQAPGQGLEWIGYFYPRNGATHYNQKFTGRATLTVDTSTSTAYMEISSLRSEDTAVYFCARGETPGTFPYWGQGTLVTVSS
VL: EIVLTQSPATLSLSPGERATLSCRASESVDNFGITFMHWYQQKPGQAPRLLIYRASNLESGIPARFSGSGSRTDFTLTISSLEPEDFAVYYCQQSSKDPRTFGQGTKLEIKR
notes: also called FLT004-hu-9; FTL004-hum-9
B7: FTL004-hu-11 (antibody, human IgG1, kappa, V domains shown)
VH: B6 VH
VL: DIQLTQSPSSLSASVGDRVTITCRASESVDNFGITFMHWYQQKPGKAPKLLIYRASNLESGVPSRFSGSGSRTDFTLTISSLQPEDFATYYCQQSSKDPRTFGQGTKLEIKR
notes: also called FLT004-hu-11; FTL004-hum-11
B8: FTL004-hu-16 (antibody, human IgG1, kappa, V domains shown)
VH: EVQLVQSGAEVKKPGATVKISCKASGYTFTDYNVHWIQQAPGKGLEWIGYFYPRNGATHYAEKFQGRVTLTADTSTDTAYMELSSLRSEDTAVYYCARGETPGTFPYWGQGTLVTVSS
VL: B6 VL
notes: also called FLT004-hu-16; FTL004-hum-16
B9: FTL004-hu-4 (antibody, human IgG1, kappa, V domains shown)
VH: QVQLVQSGSELKKPGASVKVSCKASGYTFTDYNVHWIRQAPGQGLEWIGYFYPRNGATHYAQGFTGRAVLSADTSVSTAYLQISSLKAEDTAVYYCARGETPGTFPYWGQGTLVTVSS
VL: B6 VL
notes: also called FLT004-hu-4; FTL004-hum-4
B10: FTL004-hu-5 (antibody, human IgG1, kappa, V domains shown)
VH: B9 VH with A61N, G63K, Y95F
VL: B7 VL
notes: also called FLT004-hu-5; FTL004-hum-5
B11: FTL004-hu-15 (antibody, human IgG1, kappa, V domains shown)
VH: B8 VH with A61N, E62Q, Q65T, V68A, L83I, Y95F
VL: B6 VL
notes: also called FLT004-hu-15; FTL004-hum-15
B12: FTL004-hu-12 (antibody, human IgG1, kappa, V domains shown)
VH: B6 VH
VL: B7 VL with R24Q, S60T, L77F, F87I
notes: also called FLT004-hu-12; FTL004-hum-12
B13: FTL004-hu-10 (antibody, human IgG1, kappa, V domains shown)
VH: B6 VH with N61A, T65Q, A68V, L70M, I83L, F95Y
VL: B6 VL
notes: also called FLT004-hu-10; FTL004-hum-10
B14: FTL004-hu-18 (antibody, human IgG1, kappa, V domains shown)
VH: B8 VH with A61N, E62Q, Q65T, V68A, L83I, Y95F
VL: B7 VL with R24Q, S60T, L77F, F87I
notes: also called FLT004-hu-18; FTL004-hum-18
B15: FTL004-hu-3 (antibody, human IgG1, kappa, V domains shown)
VH: B9 VH with A61N, G63K, Y95F
VL: B6 VL
notes: also called FLT004-hu-3; FTL004-hum-3
B16: FTL004-hu-17 (antibody, human IgG1, kappa, V domains shown)
VH: B8 VH with A61N, E62Q, Q65T, V68A, L83I, Y95F
VL: B7 VL
notes: also called FLT004-hu-17; FTL004-hum-17
B17: FTL004-hu-14 (antibody, human IgG1, kappa, V domains shown)
VH: B8 VH
VL: DIVLTQSPASLAVSPGQRATITCRASESVDNFGITFMHWYQQKPGQPPKLLIYRASNLESGVPARFSGSGSRTDFTLTINPVEANDTANYYCQQSSKDPRTFGQGTKLEIKR
notes: also called FLT004-hu-14; FTL004-hum-14
B18: FTL004-hu-2 (antibody, human IgG1, kappa, V domains shown)
VH: B9 VH
VL: B17 VL
notes: also called FLT004-hu-2; FTL004-hum-2
B19: FTL004-hu-8 (antibody, human IgG1, kappa, V domains shown)
VH: B6 VH with N61A, T65Q, A68V, L70M, I83L, F95Y
VL: B17 VL
notes: also called FLT004-hu-8; FTL004-hum-8
B20: FTL004-hu-13 (antibody, human IgG1, kappa, V domains shown)
VH: B8 VH with A61N, E62Q, Q65T, V68A, L83I, Y95F
VL: B17 VL
notes: also called FLT004-hu-13; FTL004-hum-13

biological target: CD38 on CD38-positive cells (human, UniProt P28907 1-300); test: cell-based or functional assay

Rate of apoptosis (%), Daudi cells [%] | Rate of apoptosis (%), Raji cells [%] | Rate of apoptosis (%), Romas cells [%] | Rate of apoptosis (%), SU-DHL-6 cells [%] | Binder
29.3 | 13.8 | 63.6 | 16.8 | B1
36 | 13.9 | 57 | 15.1 | B2
34.5 | 12.1 | 31.1 | 19.9 | B3
37.4 | 17.8 | 60.3 | 20.3 | B4
36.9 | 14.8 | 62.7 | 20.2 | B5

biological target: T1, recombinant extracellular domain of CD38 (human, UniProt P28907 43-300); test: Biacore SPR
T1 construct: also called CD38 extracellular domain; AtaGenix ATMP00140HU

Kd [nM] | koff [s⁻¹] | kon [M⁻¹ s⁻¹] | Binder
3.04 | 0.000699 | 230000 | B6
2.87 | 0.000848 | 296000 | B7
25.2 | 0.00459 | 182000 | B8
10.5 | 0.00313 | 297000 | B9
1.65 | 0.000686 | 415000 | B10
3.66 | 0.000784 | 214000 | B11
3.54 | 0.00083 | 234000 | B12
14.9 | 0.00241 | 162000 | B13
4.16 | 0.000788 | 189000 | B14
1.5 | 0.00052 | 347000 | B15
3.09 | 0.000848 | 275000 | B16
2.44 | 0.000677 | 277000 | B1
22.4 | 0.00466 | 208000 | B17
8.3 | 0.00285 | 344000 | B18
2.4 | 0.000766 | 320000 | B3
8.39 | 0.00257 | 307000 | B19
2.78 | 0.000853 | 307000 | B20
1.42 | – | – | B5

biological target: FcγRIIIa(F176) (UniProt P08637 17-208, limits assumed); test: kinetics, FcγRIIIa as ligand, antibody as analyte
Sequence (P08637 17-208 limits assumed): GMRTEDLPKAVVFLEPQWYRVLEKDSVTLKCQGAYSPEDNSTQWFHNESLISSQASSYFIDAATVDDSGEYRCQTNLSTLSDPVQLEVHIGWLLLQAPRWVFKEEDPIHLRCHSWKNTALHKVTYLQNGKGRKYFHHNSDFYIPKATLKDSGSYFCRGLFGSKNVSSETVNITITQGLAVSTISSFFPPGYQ

Kd [nM] | koff [s⁻¹] | kon [M⁻¹ s⁻¹] | Binder
22.7 | 0.0136 | 599000 | B4

biological target: FcγRIIIa (V176) (UniProt P08637 17-208, limits assumed); test: kinetics, FcγRIIIa as ligand, antibody as analyte
Sequence (P08637 17-208 F176V limits assumed): as the sequence (P08637 17-208 limits assumed) above, with F160V counted along it

Kd [nM] | koff [s⁻¹] | kon [M⁻¹ s⁻¹] | Binder
36.9 | 0.021 | 570000 | B4

biological target: T2, human CD38 antigen protein (coated in ELISA) (human, UniProt P28907 43-300, limits assumed); test: ELISA on coated CD38 antigen, OD (450 nm) against antibody concentration (ng/ml) [Plate3]
T2 construct: also called the antigen CD38; human antigen

EC50 (read off the curve) [µg/mL] | Binder
~0.3 | B13
~0.5 | B17

Source: US20240400711A1 (SOUND BIOPHARMACEUTICALS, published 2024)
